# Results reported in patent publication US20140087995A1 (published 2014).
# Where a chain is given by its changes, count along the chain named. Like-named read-outs stand apart in the source and are kept apart here. Numbered stars: 1 amine (or outer) side, 2 acyl side, 3 side chain; on linkers, the order of the positions; unused ones are H or OH. Bridge positions count the residues as written; N and C are the ends. Side chains are listed from the residue outwards. Ends that are not written are not given here. * marks the point of attachment. C20 diacid = O=C(O)CCCCCCCCCCCCCCCCCCC(=O)*; γGlu = O=C(O)[C@H](CCC(=O)[*:2])N[*:1]
# T1: human amylin 3(a) receptor (human calcitonin receptor plus RAMP-3) (human, UniProt P30988 25-474; O60896 24-148, limits assumed)
# T1 sequence (looked up) 1: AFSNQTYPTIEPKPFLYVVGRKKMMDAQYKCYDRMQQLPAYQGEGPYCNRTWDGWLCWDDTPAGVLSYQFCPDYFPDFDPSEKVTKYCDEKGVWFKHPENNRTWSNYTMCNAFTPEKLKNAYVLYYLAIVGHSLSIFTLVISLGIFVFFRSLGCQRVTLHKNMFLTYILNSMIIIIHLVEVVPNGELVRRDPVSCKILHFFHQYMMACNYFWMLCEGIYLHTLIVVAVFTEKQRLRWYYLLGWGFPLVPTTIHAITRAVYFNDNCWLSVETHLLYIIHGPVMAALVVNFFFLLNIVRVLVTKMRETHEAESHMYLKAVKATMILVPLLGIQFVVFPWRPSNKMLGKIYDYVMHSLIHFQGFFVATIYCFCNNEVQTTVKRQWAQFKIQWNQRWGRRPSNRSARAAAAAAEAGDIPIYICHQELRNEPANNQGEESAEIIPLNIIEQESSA
# T1 sequence (looked up) 2: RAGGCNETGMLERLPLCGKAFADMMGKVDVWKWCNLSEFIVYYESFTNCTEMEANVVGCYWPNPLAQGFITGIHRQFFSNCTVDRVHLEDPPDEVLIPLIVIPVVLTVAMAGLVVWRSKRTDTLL
# T2: human calcitonin receptor (human, UniProt P30988 25-474)
# T2 sequence (looked up): T1 sequence (looked up) 1
# T3: human calcitonin receptor (human, UniProt P30988 25-474)
# T3 sequence (looked up): T1 sequence (looked up) 1
# B1: N^ε1-[(4S)--4-carboxy-4-(19-carboxynonadecanoylamino)butanoyl]-[Glu14,Arg17,Pro21,Pro27,Pro37]-h-amylin (peptide)
# peptide: K([γGlu-C20 diacid])CNTATCATQRLAEFLRHSSPNFGAIPSSTNVGSNTP-NH2
# modifications: disulfide 2-7; N-terminus assumed
# SMILES: CC[C@H](C)[C@H](NC(=O)[C@H](C)NC(=O)CNC(=O)[C@H](Cc1ccccc1)NC(=O)[C@H](CC(N)=O)NC(=O)[C@@H]1CCCN1C(=O)[C@H](CO)NC(=O)[C@H](CO)NC(=O)[C@H](Cc1c[nH]cn1)NC(=O)[C@H](CCCNC(=N)N)NC(=O)[C@H](CC(C)C)NC(=O)[C@H](Cc1ccccc1)NC(=O)[C@H](CCC(=O)O)NC(=O)[C@H](C)NC(=O)[C@H](CC(C)C)NC(=O)[C@H](CCCNC(=N)N)NC(=O)[C@H](CCC(N)=O)NC(=O)[C@@H](NC(=O)[C@H](C)NC(=O)[C@@H]1CSSC[C@H](NC(=O)[C@@H](N)CCCCNC(=O)CC[C@H](NC(=O)CCCCCCCCCCCCCCCCCCC(=O)O)C(=O)O)C(=O)N[C@@H](CC(N)=O)C(=O)N[C@@H]([C@@H](C)O)C(=O)N[C@@H](C)C(=O)N[C@@H]([C@@H](C)O)C(=O)N1)[C@@H](C)O)C(=O)N1CCC[C@H]1C(=O)N[C@@H](CO)C(=O)N[C@@H](CO)C(=O)N[C@H](C(=O)N[C@@H](CC(N)=O)C(=O)N[C@H](C(=O)NCC(=O)N[C@@H](CO)C(=O)N[C@@H](CC(N)=O)C(=O)N[C@H](C(=O)N1CCC[C@H]1C(N)=O)[C@@H](C)O)C(C)C)[C@@H](C)O
# notes: also called compound 12
# B2: N{Alpha-1}-[(4S)-4-carboxy-4-(19-carboxynonadecanoylamino)butanoyl]-[Glu14,Arg17,Pro21,Pro27,Lys34]-h-amylin (peptide)
# peptide: {C20 diacid-γGlu}-KCNTATCATQRLAEFLRHSSPNFGAIPSSTNVGKNTY-NH2
# modifications: disulfide 2-7
# SMILES: CC[C@H](C)[C@H](NC(=O)[C@H](C)NC(=O)CNC(=O)[C@H](Cc1ccccc1)NC(=O)[C@H](CC(N)=O)NC(=O)[C@@H]1CCCN1C(=O)[C@H](CO)NC(=O)[C@H](CO)NC(=O)[C@H](Cc1c[nH]cn1)NC(=O)[C@H](CCCNC(=N)N)NC(=O)[C@H](CC(C)C)NC(=O)[C@H](Cc1ccccc1)NC(=O)[C@H](CCC(=O)O)NC(=O)[C@H](C)NC(=O)[C@H](CC(C)C)NC(=O)[C@H](CCCNC(=N)N)NC(=O)[C@H](CCC(N)=O)NC(=O)[C@@H](NC(=O)[C@H](C)NC(=O)[C@@H]1CSSC[C@H](NC(=O)[C@H](CCCCN)NC(=O)CC[C@H](NC(=O)CCCCCCCCCCCCCCCCCCC(=O)O)C(=O)O)C(=O)N[C@@H](CC(N)=O)C(=O)N[C@@H]([C@@H](C)O)C(=O)N[C@@H](C)C(=O)N[C@@H]([C@@H](C)O)C(=O)N1)[C@@H](C)O)C(=O)N1CCC[C@H]1C(=O)N[C@@H](CO)C(=O)N[C@@H](CO)C(=O)N[C@H](C(=O)N[C@@H](CC(N)=O)C(=O)N[C@H](C(=O)NCC(=O)N[C@@H](CCCCN)C(=O)N[C@@H](CC(N)=O)C(=O)N[C@H](C(=O)N[C@@H](Cc1ccc(O)cc1)C(N)=O)[C@@H](C)O)C(C)C)[C@@H](C)O
# notes: also called compound 36
# B3: N^α1 N^α1-[(4S)-4-carboxy-4-[[(4S)-4-carboxy-4-(19-carboxynonadecanoylamino)butanoyl]amino]butanoyl]-[Glu14,Arg17,Pro21,Pro27]-h-amylin (peptide)
# peptide: {C20 diacid-γGlu-γGlu}-KCNTATCATQRLAEFLRHSSPNFGAIPSSTNVGSNTY-NH2
# modifications: disulfide 2-7
# SMILES: CC[C@H](C)[C@H](NC(=O)[C@H](C)NC(=O)CNC(=O)[C@H](Cc1ccccc1)NC(=O)[C@H](CC(N)=O)NC(=O)[C@@H]1CCCN1C(=O)[C@H](CO)NC(=O)[C@H](CO)NC(=O)[C@H](Cc1c[nH]cn1)NC(=O)[C@H](CCCNC(=N)N)NC(=O)[C@H](CC(C)C)NC(=O)[C@H](Cc1ccccc1)NC(=O)[C@H](CCC(=O)O)NC(=O)[C@H](C)NC(=O)[C@H](CC(C)C)NC(=O)[C@H](CCCNC(=N)N)NC(=O)[C@H](CCC(N)=O)NC(=O)[C@@H](NC(=O)[C@H](C)NC(=O)[C@@H]1CSSC[C@H](NC(=O)[C@H](CCCCN)NC(=O)CC[C@H](NC(=O)CC[C@H](NC(=O)CCCCCCCCCCCCCCCCCCC(=O)O)C(=O)O)C(=O)O)C(=O)N[C@@H](CC(N)=O)C(=O)N[C@@H]([C@@H](C)O)C(=O)N[C@@H](C)C(=O)N[C@@H]([C@@H](C)O)C(=O)N1)[C@@H](C)O)C(=O)N1CCC[C@H]1C(=O)N[C@@H](CO)C(=O)N[C@@H](CO)C(=O)N[C@H](C(=O)N[C@@H](CC(N)=O)C(=O)N[C@H](C(=O)NCC(=O)N[C@@H](CO)C(=O)N[C@@H](CC(N)=O)C(=O)N[C@H](C(=O)N[C@@H](Cc1ccc(O)cc1)C(N)=O)[C@@H](C)O)C(C)C)[C@@H](C)O
# notes: also called compound 15
# B4: N^α1-[2-[2-[2-[[2-[2-[2-[[(4S)-4-carboxy-4-(19-carboxynonadecanoylamino)butanoyl]amino]ethoxy]ethoxy]acetyl]amino]ethoxy]ethoxy]acetyl]-[Glu14,Arg17,Pro21,Pro27 … (peptide)
# peptide: KCNTATCATQRLAEFLRHSSPNFGAIPSSTNVGSNTY
# modifications: C20 diacid-gGlu-2xOEG on the alpha amino group of the N-terminal residue (position 1); disulfide bridge Cys2-Cys7; C-terminal amide
# notes: also called compound 19
# B5: N^α1-[2-[2-[2-[[2-[2-[2-[[(4S)-4-carboxy-4-(19-carboxynonadecanoylamino)butanoyl]amino]ethoxy]ethoxy]acetyl]amino]ethoxy]ethoxy]acetyl]-[Arg17,Pro21,Pro27]-h-am … (peptide)
# peptide: B4 peptide with E14N
# modifications: alpha-amino group of N-terminal Lys1 acylated with C20 diacid via gGlu-2xOEG linker; disulfide Cys2-Cys7; C-terminal amide
# notes: h-amylin derivative; disulfide bridge and C-terminal amide as told for human amylin; also called compound 24
# B6: N^α1-[(4S)-4-carboxy-4-(19-carboxynonadecanoylamino)butanoyl]-[Arg17,Pro21,Pro27,His34]-h-amylin (peptide)
# peptide: B4 peptide with E14N, S34H
# modifications: alpha-amino group of N-terminal Lys1 acylated with C20 diacid via gGlu linker; disulfide Cys2-Cys7; C-terminal amide
# notes: h-amylin derivative; disulfide bridge and C-terminal amide as told for human amylin; also called compound 40
# What was measured:
# [1] = target: T1, human amylin 3(a) receptor (human …); assay: cell-based or functional assay
# [2] = target: T2, human calcitonin receptor; assay: cell-based or functional assay
# [3] = target: T1, human amylin 3(a) receptor (human …); assay: SPA competition binding, displacement of 125I-rat amylin from membranes of Amylin 3(a)/CRE-luc BHK cells (Assay V)
# Outline: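 SPA beads with BHK Amylin 3(a)/CRE-luc cell membranes (35 ng/μL final) in 50 mM Hepes pH 7.4, 1 mM CaCl2, 5 mM MgCl₂, 0.1% OA, 0.02% Tween20.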
# [4] = target: T3, human calcitonin receptor; assay: cell-based or functional assay; remark: listed apart in the source
Binder,Ratio hCT/hAmylin funct. [1],hAmylin-R funct. EC50 [1] [pM],hCTR funct. EC50 [2] [pM],IC50 [3] [pM],hCTR funct. EC50 [4] [pM]
B1,1.8,101,185,142,–
B2,6.8,189,1280,403,–
B3,8.9,386,3430,597,–
B4,17.4,307,5320,556,–
B5,–,–,–,–,10000
B6,–,–,–,–,2680
